Reference: patent publication US6875737

Target: T cell receptor of the murine 2B4 T cell hybridoma
Assay: cell-based or functional assay

| IL-2 production in 2B4 cells at 0.4 µM KbP-S-MCC, against the maximum response obtained with the MCC peptide alone | IL-2 production in 2B4 cells: concentration needed for the maximum response, against 0.4 µM KbP-S-MCC (fold higher concentration) | Substance |
| --- | --- | --- |
| > 2 fold |  | KbP-S-MCC (Lys-boroPro coupled through a spacer linker to the N terminus of moth cytochrome C peptide 94-103) (from UniProt P00039 94-103) |
|  | 10 | Moth cytochrome C peptide MCC 94-103 (from UniProt P00039 94-103) |
